# Measured values as given in paper PMC3128119.
# T1: SmeT (UniProt Q8KLP4 1-219)
# T1 sequence: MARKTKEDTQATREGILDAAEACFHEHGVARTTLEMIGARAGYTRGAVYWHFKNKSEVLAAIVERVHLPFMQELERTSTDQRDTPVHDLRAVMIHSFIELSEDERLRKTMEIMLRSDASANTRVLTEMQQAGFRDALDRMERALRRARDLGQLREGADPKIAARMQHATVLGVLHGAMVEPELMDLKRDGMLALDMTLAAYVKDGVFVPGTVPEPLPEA
# Molecular target: T1, SmeT
# Assay: EMSA; 0.2 uM SmeT, 2 nM DNA, no triclosan, 10 mM MgCl2; EMSA: 10 mM Tris-HCl pH 7.2, 50 mM KCl, 10 mM MgCl2, 1 mM EDTA, 50 ug/ml BSA, 1 mM DTT, 5% glycerol, 100 ug/ml poly(dI-dC), room temperature 20 min (+15 min with biocide); 6% gel at 4 C
# Conditions: protein: recombinant; tags: none stated after intein-CBD self-cleavage (pTYB1); chain copies: 2; label: 5' 32P; blunt
binder,measurement,value
30-bp smeT operator (dsDNA) DNA 1: GTTTACAAACAAACAAGCATGTATGTATAT DNA 2: ATATACATACATGCTTGTTTGTTTGTAAAC,binding result,binds
